assay: yeast display, Sf9 membrane polyspecificity reagent, FACS + sequencing; frameworks hold sequencing errors
In short: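 Galactose induction of a Saccharomyces cerevisiae BJ5465 synthetic nanobody display library ran 36–48 hours. The cells were then stained for 1 hour at 4 °C with 10% biotinylated, detergent-solubilized Sf9 membrane reagent, pulled down on streptavidin microbeads and FACS-sorted into low and high (top ~1%) gates on expression and reagent-binding fluorescence. Labels for polyreactivity follow the gate of origin.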

Sequence | polyreactivity (PSR sort gate)
QVQLVESGGGLVQAGGSLRLSCAASGFIFSRNVMGWYRQAPGKERELVAAISRSGGSTYYADSVKGRFTISRDNAKNTVYLQMNSLKTEYTAVYYCAASRINNVYLLKGDYWGQGTQVTVSS | high polyreactivity
QVQLVESGGGLVQAGGSLRLSCAASGFIFSRYAMGWYRQAPGKERELVAAINLSGTSTYYADSVKGRFTISRDNAKNTVYLQMNSLKPEDTAVYYCAATSSYIYPYGYWGQGTQVTVSS | high polyreactivity
QVQLVESGGGLVQAGGSLRLSCAASGFIFSRYAMGWYRQAPGKERELVAAISDYGGRTYYADSVKGRFTISRDNAKNTVYLQMNSLKPEDTAVYYCAADLEGYYPYEYWGQGTKVTVSS | high polyreactivity
QVQLVESGGGLVQAGGSLRLSCAASGFIFSRYAMGWYRQAPGKERELVAAISRGGSTYYADYVKGRFTISRDNAKNTVYLQMNSLKPEDTAVYYCAVRQIVRYYYWGQGTQVTVSS | high polyreactivity
QVQLVESGGGLVQAGGSLRLSCAASGFIFSRYAMGWYRQAPGKERELVAAISSGGRTNYADSVKGRFTISRDNAKNTVYLQMNSLKPEDTAVYFCAALLRGRSGQFEYDYWGQGTQVTVSS | low polyreactivity
QVQLVESGGGLVQAGGSLRLSCAASGFIFSRYGMGWYRQAPGKERELVAAISRTGGSTYYADSVKGRFTISRDNAKNTVYFQMNSLKPEDTAVYYCATAYSWRNADWFAYSYDYWGQGTQVTVSS | low polyreactivity
QVQLVESGGGLVQAGGSLRLSCAASGFIFSRYVMGWYRQAPGKEREFVAAISSSGGSTYYADSVKGRFTISRDNAKNTVYLQMNSLKPEDTAVYYCATRLGRYYRVGFDYWGQGNQVTVSS | high polyreactivity
QVQLVESGGGLVQAGGSLRLSCAASGFIFSSYAMGWYRQAPGKERELVAAISWSDSSTYYADSVKGRFTISRDNSKNTVYLQMTSLKPEDTAVYYCNVEVAESYDYWGQGTQVTVSS | low polyreactivity
QVQLVESGGGLVQAGGSLRLSCAASGFIFSSYAMGWYRQAPGKERELVAAITRNGGSTYYADSVKGRFTISRDNAKNTVYLQMNSLKPEDTAVYYCAAPRWRGVGRFDYWGQGTQVTVSS | high polyreactivity
QVQLVESGGGLVQAGGSLRLSCAASGFIFSSYAMGWYRQAPGKERELVAAITVRAGRTYYADSVKGRFTISRDNATNTVYFQMNSVKAEDTAVDYCAAAYRHPYGKYVYWGQGTQVTVSS | high polyreactivity
QVQLVESGGGLVQAGGSLRLSCAASGFIFSSYAMGWYRQAPGKERELVASIRRRGGSTYYADSVKGRFTISRDNAKNTVYLQMNSLKPEDTAVYYCAASRVSYGTRFDYWGQGTQVTVSS | high polyreactivity
QVQLVESGGGLVQAGGSLRLSCAASGFIFSSYTMGWYRQAPGKERELVAAITSRGGSTYYADSVKGRLTISRDNAKNTVYLQMNSLKPEDTAVYDWNARRIPYSPYGVHEGYYWGLGTQVTVSS | high polyreactivity
QVQLVESGGGLVQAGGSLRLSCAASGFIFSTNAMGWYRQAPGKERELVATIRSGGSTNYADSVKGRFTISRDNAKNTVYLQMNSLKPEDTAVYYCAAEPPGSTYEGGYWGQGTQVTVSS | low polyreactivity
QVQLVESGGGLVQAGGSLRLSCAASGFIFSWYAMGWYRQAPGKERELVARISSSGGNTYYADSVKGRFTISRDNAKNTVYLQMNSLKPEDTAVYYCAAGYRYRYDYWGQGTQVTVSS | high polyreactivity
QVQLVESGGGLVQAGGSLRLSCAASGFIFSYAMGWYRQAPGKERELVAAISKSGGRTYYADSVKGRFTISRDNAKNTVYLQMNSLKPEDTAVYYCAVRDLHLSIARYNYWGQGTQVTVSS | high polyreactivity
QVQLVESGGGLVQAGGSLRLSCAASGFIFSYNAMGWYREAPGKERELVAAISSRGGSTYYADSVKGRFTISRDNAKNTVYLQMNSLKPEDTADYYCAVASRRVYTAPYDYWGQGTQVTVSS | high polyreactivity
QVQLVESGGGLVQAGGSLRLSCAASGFIFSYNAMGWYRQAPGKERELVAAISSSGGTTYYADSVKGRFTISRDKAKNTVYLQMNSLKPEDTAVYYCNKTTHSRTFRYDYWAQGTQVTVSS | low polyreactivity
QVQLVESGGGLVQAGGSLRLSCAASGFIFSYNAMGWYRQAPGSERELVAAITRRTASTYYADSVKGRFTISRDNAKNTVYFQMNSLKPEDTAVYYCAADSSLKRPYYAGYYYWGQGTQVTVSS | high polyreactivity
QVQLVESGGGLVQAGGSLRLSCAASGFIFSYYAMGLYRQAPGKERELVAAIDYSGGSTNYADSVKGRFTISRDIAKYTVYLQMNSLKPEDTAVYYCNAEYTWHRGYDYWGQGTQVTVSS | low polyreactivity
QVQLVESGGGLVQAGGSLRLSCAASGFIFSYYAMGWYRQAPGKEREFVAAISRRGGSTYYADSVKGRFTISRDNAKNTVYLQMISLKPDDSAVYYCARRRTSTAVREHYYRDWYGYDYWGQGTQVTVSS | high polyreactivity
QVQLVESGGGLVQAGGSLRLSCAASGFIFSYYAMGWYRQAPGKERELVAAITVRGGSTYYADSVKGRFTISRDNAKNTVYLQRNCLKPEDTAVYYCNTVHGLWRRYNYWGQGTQVTVSS | high polyreactivity
QVQLVESGGGLVQAGGSLRLSCAASGFIFSYYAMGWYRQAPGKERELVAAITWDGGSTYYADSVKGRFTISRDNAKNTVYLQMNSLKPEDTAVYYCNAYYYYRRPLEGGYGGQGTQVTVSS | low polyreactivity
QVQLVESGGGLVQAGGSLRLSCAASGFIFSYYAMGWYRQAPGKEWELVAAISQNVAGTYYADSVKGRFTISRDNAKNTVYLQMNSLKPEDTAVYYCNARPYSGKYYYWGQGTQVTVSS | high polyreactivity
QVQLVESGGGLVQAGGSLRLSCAASGFIFSYYAMGWYRQEPGKERELVAAITSNGGITYYADSVKGRFTISRDNAKNTVYLQMNSLKPEDTAVYYCNAYYTSTSYDYWGQGTQVTVSS | high polyreactivity
QVQLVESGGGLVQAGGSLRLSCAASGFIFTDNAMGWYRQAPGKEREFVAAITYSGGSTYYADSVKGRFTISRDNAKNTVYLQMNSLKPEDTAVYYCNKDVFPAPGGVTAYEYEYWGQGTQVTVSS | low polyreactivity
QVQLVESGGGLVQAGGSLRLSCAASGFIFTEYAMGWYRQAPGKERELVAAISRSDDGTHYADSVKGRFTISRDYAKNTVYLPMNSLKPEDTAVYDCAAYRDYQYDYWGQGTQVTVSS | low polyreactivity
QVQLVESGGGLVQAGGSLRLSCAASGFIFTGYAMGWYRQAPGTEREFVAAISYSGGSTYADSVKGRFTISRDNAKNTVYLQMNSLKPEDTAVYYCNARQGLWRYTAENDYWGQGTHVTVSS | low polyreactivity
QVQLVESGGGLVQAGGSLRLSCAASGFIFTIYAMGWYRQAPGKERELVAAISSGGSTTYADSVKGRFTISRDNAKNTVYLQMNSLKPEDTAVYYCNADYQYNRYSRVVGGHYVGWYGYWGQGTQVTVSS | low polyreactivity
QVQLVESGGGLVQAGGSLRLSCAASGFIFTIYAMGWYRQAPGKERELVAAITWNGGRTYYADSVKGRFTISRDNAKNTVYLQMNSLKAEDTAVYYCAARYGRAYDYWGQGTQVTVSS | high polyreactivity
QVQLVESGGGLVQAGGSLRLSCAASGFIFTKNAMGWYRQAPGKDRVLVAAITSSGGNTYYADSVKRRFTIARDNAKNTVYLQMNSLKPEDTAVYYCAASRFLRMYWGQGTQVTVSS | high polyreactivity

— the nanobody polyreactivity screen of Harvey et al. (2022)
